Measured values as given in US8147838B2, “Peptide” (priority 2005, dated 2012).
“Also recorded” adds a separate entry of the source.

Tests used:
[1] = target: MHC class I allele A*0101 (A1) (Homo sapiens, UniProt P04439, A114D/A174V/A182V/D101N/D185E/E176A/E190D/L180R/Q94H/R68K/S129P/T187R/V100A/V91M/W191G); experiment: iTopia peptide binding assay, A*0101; conditions: percent of positive control peptide binding; peptide at 1.11×10^−5M
Procedure: (§1) The 9 mers were tested for Peptide Binding, Off Rate and Affinity using iTopia Epitope Discovery System in accordance with the manufacturer's instructions. Briefly, 96 well microtitre plates coated with MHC molecules representing different MHC alleles are used to identify candidate peptides. […] Determinations are performed in duplicate using an ELISA plate reader and included allele specific positive controls.
(§2) i) Peptide Binding—This assay measures the ability of individual peptides to bind to the MHC molecules under standardized optimal binding conditions. The assay is performed for all the test peptides across the selected MHC alleles. The test peptides identified as “binders” are characterized further in terms of affinity and dissociation experiments.
(§3) Following a period of binding under optimal conditions, excess antibody is removed and a measurement of total fluorescence taken (D).
(§4) The binding of the test peptides to the MHC molecules was performed at 1.11×10^−5M of peptide under optimal, standardised test conditions. A control peptide was run in parallel on the same plate and at the same concentration as the test peptides.
(§5) The level of binding is expressed as a percent of positive control peptide binding for each allele.

[2] = target: MHC class I allele A*0201 (A2) (Homo sapiens, UniProt P04439, D140Y/D185E/D98H/E176V/E277Q/G131W/G231S/I119V/I121R/I166T/I218V/L300P/L318F/N151K/N90K/P208A/P217A/Q86G/Q94H/R138H/R169H/T345S); experiment: iTopia peptide binding assay, A*0201; conditions: percent of positive control peptide binding; peptide at 1.11×10^−5M
Procedure: as §1, §2, §3, §4, §5

[3] = target: MHC class I allele A*0301 (A3) (Homo sapiens, UniProt P04439); experiment: iTopia peptide binding assay, A*0301; conditions: percent of positive control peptide binding; peptide at 1.11×10^−5M
Procedure: as §1, §2, §3, §4, §5

[4] = target: MHC class I allele B*0702 (B7) (Homo sapiens, UniProt P01889); experiment: iTopia peptide binding assay, B*0702; conditions: percent of positive control peptide binding; peptide at 1.11×10^−5M
Procedure: as §1, §2, §3, §4, §5

[5] = test system: PBMCs recovered from patients treated with TroVax; experiment: IFNγ ELISPOT with PBMCs from TroVax treated patients; assay type: cell-based, human
[6] = test system: PBMCs recovered from TroVax treated patients; assay type: cell-based, human
[7] = positive proliferative responses

With NHIVPPEDE [Peptide 91] the “Peptide binding, MHC Class I Molecule A*0101” value [1] was 6 % of control, the “Peptide binding, MHC Class I Molecule A*0201” value [2] was 11 % of control and the “Peptide binding, MHC Class I Molecule A*0301” value [3] was 3 % of control. The “Peptide binding, MHC Class I Molecule B*0702” value [4] was 5 % of control.

With PALCECSEA [Peptide 32] the “Peptide binding, MHC Class I Molecule A*0101” value [1] was 4 % of control, the “Peptide binding, MHC Class I Molecule A*0201” value [2] was 19 % of control and the “Peptide binding, MHC Class I Molecule A*0301” value [3] was 0 % of control. The “Peptide binding, MHC Class I Molecule B*0702” value [4] was 0 % of control.

In the case of KGIKKWMHN [Peptide 190], the “Peptide binding, MHC Class I Molecule A*0101” value [1] is reported as 3 % of control, the “Peptide binding, MHC Class I Molecule A*0201” value [2] is reported as 14 % of control and the “Peptide binding, MHC Class I Molecule A*0301” value [3] is reported as 3 % of control. For the same sequence, the “Peptide binding, MHC Class I Molecule B*0702” value [4] was 6 % of control.

With AGAFEHLPS [Peptide 68] the “Peptide binding, MHC Class I Molecule A*0101” value [1] was 6 % of control, the “Peptide binding, MHC Class I Molecule A*0201” value [2] was 10 % of control and the “Peptide binding, MHC Class I Molecule A*0301” value [3] was 3 % of control. For the same sequence, the “Peptide binding, MHC Class I Molecule B*0702” value [4] was 7 % of control.

For NLTEVPTDLP [10 mer peptide 41], the “IFNγ ELISPOT response” value ([5]; 10 mer vs 9 mer experiment, absence of A2 blocking antibody, FIG. 14) was “no response”.

MVTWLKETEVVQGKDRLTCA [Peptide 39.2] was tested, and the “Responding patient ID (positive IFNγ ELISpot response to class II 20 mer peptide)” value ([5]; 5 μg/ml, following, not before, TroVax vaccination) was “TV2-104; also recorded: TV2-110; also recorded: TV2-005; also recorded: TV2-012; also recorded: TV2-102; also recorded: TV2-103”, the “most likely HLA restriction” value ([6]; from HLA-type frequency among responding patients) was “DQ6, DR51, or DR52” and the “responders with HLA type DQ6 out of all responders” value [6, 7] was 6 out of 10. For the same sequence, the “responders with HLA type DR51 out of all responders” value [6, 7] was 5 out of 10, the “responders with HLA type DR52 out of all responders” value [6, 7] was 5 out of 10 and the “HLA-type distribution among positive proliferative responses: DQ2” value ([6]; responding patients with HLA type DQ2 / all responding patients, PBMCs from TroVax treated patients) was 4/10. The “HLA-type distribution among positive proliferative responses: DQ4” value ([6]; responding patients with HLA type DQ4 / all responding patients, PBMCs from TroVax treated patients) was 0/10, the “HLA-type distribution among positive proliferative responses: DQ5” value ([6]; responding patients with HLA type DQ5 / all responding patients, PBMCs from TroVax treated patients) was 3/10 and the “HLA-type distribution among positive proliferative responses: DQ6” value ([6]; responding patients with HLA type DQ6 / all responding patients, PBMCs from TroVax treated patients) was 6/10. The “HLA-type distribution among positive proliferative responses: DQ7” value ([6]; responding patients with HLA type DQ7 / all responding patients, PBMCs from TroVax treated patients) was 2/10, the “HLA-type distribution among positive proliferative responses: DQ8” value ([6]; responding patients with HLA type DQ8 / all responding patients, PBMCs from TroVax treated patients) was 0/10 and the “HLA-type distribution among positive proliferative responses: DQ9” value ([6]; responding patients with HLA type DQ9 / all responding patients, PBMCs from TroVax treated patients) was 0/10. The “HLA-type distribution among positive proliferative responses: DR1” value ([6]; responding patients with HLA type DR1 / all responding patients, PBMCs from TroVax treated patients) was 2/10, the “HLA-type distribution among positive proliferative responses: DR4” value ([6]; responding patients with HLA type DR4 / all responding patients, PBMCs from TroVax treated patients) was 1/10 and the “HLA-type distribution among positive proliferative responses: DR7” value ([6]; responding patients with HLA type DR7 / all responding patients, PBMCs from TroVax treated patients) was 2/10. For the same sequence, the “HLA-type distribution among positive proliferative responses: DR8” value ([6]; responding patients with HLA type DR8 / all responding patients, PBMCs from TroVax treated patients) was 0/10, the “HLA-type distribution among positive proliferative responses: DR9” value ([6]; responding patients with HLA type DR9 / all responding patients, PBMCs from TroVax treated patients) was 0/10 and the “HLA-type distribution among positive proliferative responses: DR11” value ([6]; responding patients with HLA type DR11 / all responding patients, PBMCs from TroVax treated patients) was 2/10. The “HLA-type distribution among positive proliferative responses: DR13” value ([6]; responding patients with HLA type DR13 / all responding patients, PBMCs from TroVax treated patients) was 2/10, the “HLA-type distribution among positive proliferative responses: DR15” value ([6]; responding patients with HLA type DR15 / all responding patients, PBMCs from TroVax treated patients) was 4/10 and the “HLA-type distribution among positive proliferative responses: DR17” value ([6]; responding patients with HLA type DR17 / all responding patients, PBMCs from TroVax treated patients) was 2/10. For the same sequence, the “HLA-type distribution among positive proliferative responses: DR51” value ([6]; responding patients with HLA type DR51 / all responding patients, PBMCs from TroVax treated patients) was 5/10, the “HLA-type distribution among positive proliferative responses: DR52” value ([6]; responding patients with HLA type DR52 / all responding patients, PBMCs from TroVax treated patients) was 5/10 and the “HLA-type distribution among positive proliferative responses: DR53” value ([6]; responding patients with HLA type DR53 / all responding patients, PBMCs from TroVax treated patients) was 3/10.

For SGSNASVSA [Peptide 82], the “Peptide binding, MHC Class I Molecule A*0101” value [1] was 5 % of control, the “Peptide binding, MHC Class I Molecule A*0201” value [2] was 15 % of control and the “Peptide binding, MHC Class I Molecule A*0301” value [3] was 3 % of control. For the same sequence, the “Peptide binding, MHC Class I Molecule B*0702” value [4] was 11 % of control.

LGIVLALIG [Peptide 180] was tested, and the “Peptide binding, MHC Class I Molecule A*0101” value [1] was 0 % of control, the “Peptide binding, MHC Class I Molecule A*0201” value [2] was 10 % of control and the “Peptide binding, MHC Class I Molecule A*0301” value [3] was 1 % of control. For the same sequence, the “Peptide binding, MHC Class I Molecule B*0702” value [4] was 0 % of control.

For NRNLTEVPT [Peptide 40], the “Peptide binding, MHC Class I Molecule A*0101” value [1] was 1 % of control, the “Peptide binding, MHC Class I Molecule A*0201” value [2] was 6 % of control and the “Peptide binding, MHC Class I Molecule A*0301” value [3] was 0 % of control. The “Peptide binding, MHC Class I Molecule B*0702” value [4] was 5 % of control.

In the case of RRLELASNH [Peptide 107], the “Peptide binding, MHC Class I Molecule A*0101” value [1] is reported as 0 % of control, the “Peptide binding, MHC Class I Molecule A*0201” value [2] is reported as 5 % of control and the “Peptide binding, MHC Class I Molecule A*0301” value [3] is reported as 3 % of control. For the same sequence, the “Peptide binding, MHC Class I Molecule B*0702” value [4] was 3 % of control.

YRYEINADP [Peptide 201] was tested, and the “Peptide binding, MHC Class I Molecule A*0101” value [1] was 0 % of control, the “Peptide binding, MHC Class I Molecule A*0201” value [2] was 0 % of control and the “Peptide binding, MHC Class I Molecule A*0301” value [3] was 1 % of control. For the same sequence, the “Peptide binding, MHC Class I Molecule B*0702” value [4] was 3 % of control.

SADLDCDPI [Peptide 170] was tested, and the “Peptide binding, MHC Class I Molecule A*0101” value [1] was 0 % of control, the “Peptide binding, MHC Class I Molecule A*0201” value [2] was 4 % of control and the “Peptide binding, MHC Class I Molecule A*0301” value [3] was 4 % of control. For the same sequence, the “Peptide binding, MHC Class I Molecule B*0702” value [4] was 3 % of control.
